Data published in the supplement of paper PMC10126150.
± gives the standard deviation of the averaged measurements.

System: ATP
Assay: switch fluorescence ratio, 500 uM ATP over buffer (Cy3 cluster intensity, sum of 5 cycles each) (fold (ratio)); higher = stronger signal-on switching upon ATP binding; sequences stand for … in TCGTCGGCAGCGTCAGATGTGTATAAGAGACAGTTTTTTTTTTTTTTTTTTTTTTTTT…TC
Details: aptamer strand: ATP DNA aptamer (quencher-CACCTGGGGGAGTATTGCGGAGGAAGG + anchor), 100 nM annealed; ATP concentration: 500 uM
Procedure, shortened: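 Exposure to 500 uM ATP lasted 15 min at 22 °C before imaging, and a selection-buffer image was taken beforehand, for Cy3-labelled switching-strand clusters on a modified Illumina MiSeq flow-cell annealed to 100 nM quencher-labelled ATP aptamer. Five buffer/ATP cycles were run with NaOH stripping and re-annealing between them. The fluorescence ratio per cluster is summed target-cycle over summed buffer-cycle Cy3 intensity, averaged per switch-domain sequence. Clusters outside 100-1000 RFU were excluded.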

Work on CCGATTATTT yielded a switch fluorescence ratio of 0.997 ± 0.015.

CGTGGATAGT showed a switch fluorescence ratio of 0.955 ± 0.03.

TTGGGTTTCG showed a switch fluorescence ratio of 1.01 ± 0.042.

In the case of TGGTGCCCCA, the switch fluorescence ratio is reported as 1.03 ± 0.023.

Sequence TGGCAGGGGG has a switch fluorescence ratio of 0.945 ± 0.029.

TTAGTGGCTA was tested, and the switch fluorescence ratio was 1.019 ± 0.0087.

With GGTACATGGG the switch fluorescence ratio was 0.975 ± 0.021.

With AATAAGGATA the switch fluorescence ratio was 1.01 ± 0.026.

TACCTATGTT gave a switch fluorescence ratio of 0.979 ± 0.011.

GGACTTTTGT showed a switch fluorescence ratio of 0.984 ± 0.02.

For TGGGTCAGTG, the switch fluorescence ratio was 1 ± 0.021.

AGAATTTTAG gave a switch fluorescence ratio of 1.01 ± 0.016.

For GGTACGATGG, the switch fluorescence ratio was 1.01 ± 0.015.

GCGACATAGG was tested, and the switch fluorescence ratio was 0.964 ± 0.042.

In the case of GTGATAAGAC, the switch fluorescence ratio is reported as 1.042 ± 0.0085.

Sequence TGGGTAAAGA has a switch fluorescence ratio of 0.981 ± 0.049.

For GTTGACGGGG, the switch fluorescence ratio was 1.01 ± 0.021.

Sequence TGACTTGTGC has a switch fluorescence ratio of 0.976 ± 0.037.

With TCCAGGGCTT the switch fluorescence ratio was 1.06 ± 0.013.

GGCGCAGTGG showed a switch fluorescence ratio of 1.11 ± 0.041.

In the case of GATCCGGGC, the switch fluorescence ratio is reported as 1.05 ± 0.087.

For GAGGCTGGTA, the switch fluorescence ratio was 0.98 ± 0.028.

Sequence ACTCTATTTG has a switch fluorescence ratio of 1.04 ± 0.025.

Work on GGGGGCCATA yielded a switch fluorescence ratio of 1.14 ± 0.18.

TTCAAGGGCA showed a switch fluorescence ratio of 1.01 ± 0.027.

With TGGTTTTTGC the switch fluorescence ratio was 0.961 ± 0.057.

In the case of TTTTTATAGG, the switch fluorescence ratio is reported as 1.008 ± 0.0041.

Sequence ACGCGGGGGA has a switch fluorescence ratio of 1.03 ± 0.014.

For GACTGCGGAA, the switch fluorescence ratio was 2.04 ± 0.038.

TACTTAGTGG showed a switch fluorescence ratio of 1.02 ± 0.017.

AGACTAGTCG gave a switch fluorescence ratio of 0.972 ± 0.047.

For CGCGGATTGG, the switch fluorescence ratio was 0.9903 ± 0.0094.

CTCGGCGCGC showed a switch fluorescence ratio of 1.024 ± 0.0044.

In the case of GGGGCTCACG, the switch fluorescence ratio is reported as 0.985 ± 0.029.

Work on TTTTATGACC yielded a switch fluorescence ratio of 1.008 ± 0.0066.

GCAAGATTTC gave a switch fluorescence ratio of 1.04 ± 0.013.

Sequence CCTAGGGCGG has a switch fluorescence ratio of 1.006 ± 0.0011.

Sequence AGAGATTACG has a switch fluorescence ratio of 1.02 ± 0.034.

With ATTCGTGTAT the switch fluorescence ratio was 0.977 ± 0.04.

In the case of GGGGGTTCTT, the switch fluorescence ratio is reported as 1.01 ± 0.049.

For CGTGGGGGTT, the switch fluorescence ratio was 0.973 ± 0.038.

In the case of GGTTCGCGGT, the switch fluorescence ratio is reported as 1.02 ± 0.03.

Work on GGCCGGCAAC yielded a switch fluorescence ratio of 0.9996 ± 0.0039.

For AGAGGAATTC, the switch fluorescence ratio was 1 ± 0.013.

TAAACCCACT was tested, and the switch fluorescence ratio was 1.24 ± 0.063.

For TTGGGCATCA, the switch fluorescence ratio was 1 ± 0.065.

With GCGGGGTTTT the switch fluorescence ratio was 1.01 ± 0.029.

In the case of TTATATATTG, the switch fluorescence ratio is reported as 0.969 ± 0.029.

GAGCGGGGGT gave a switch fluorescence ratio of 1.01 ± 0.013.

ACCGTGTATG gave a switch fluorescence ratio of 1.01 ± 0.027.

TCAGTTTTAC showed a switch fluorescence ratio of 1.01 ± 0.052.

TCTTCTGTCG gave a switch fluorescence ratio of 1.001 ± 0.0087.

CCGAGTTTTT gave a switch fluorescence ratio of 1.07 ± 0.086.

For AAAAAAAAGG, the switch fluorescence ratio was 1 ± 0.05.

In the case of GGGGTATGAG, the switch fluorescence ratio is reported as 0.972 ± 0.029.

GCGTGACCGC gave a switch fluorescence ratio of 0.995 ± 0.04.

ATGTCCTTAT gave a switch fluorescence ratio of 0.988 ± 0.029.

With CGGCGAGAAC the switch fluorescence ratio was 1.045 ± 0.0023.

For TTGGAAGAGT, the switch fluorescence ratio was 0.9941 ± 0.0083.

Work on GGGTGAAGGC yielded a switch fluorescence ratio of 0.971 ± 0.058.

For GCCTTTGTAA, the switch fluorescence ratio was 1.09 ± 0.056.

For TAGCTTTAAC, the switch fluorescence ratio was 1.0888 ± 0.00092.

AGATTGCATG was tested, and the switch fluorescence ratio was 1.029 ± 0.0077.

ACAGTCTGTT showed a switch fluorescence ratio of 1.01 ± 0.048.

Sequence TCTGGTTGGT has a switch fluorescence ratio of 1.01 ± 0.051.

CGGGGGAAGC showed a switch fluorescence ratio of 1.02 ± 0.041.

With TTTCTATACG the switch fluorescence ratio was 1.02 ± 0.031.

In the case of CGCGACTAAA, the switch fluorescence ratio is reported as 0.9951 ± 0.0066.

CATTGAATGG showed a switch fluorescence ratio of 1 ± 0.015.

In the case of GGGGCATGGT, the switch fluorescence ratio is reported as 1.01 ± 0.018.

With ATAGGGAAGT the switch fluorescence ratio was 1 ± 0.017.

For ACAGTATTCT, the switch fluorescence ratio was 1.047 ± 0.01.

GCTTCTGCCT gave a switch fluorescence ratio of 1 ± 0.013.

With GAGTTAATGT the switch fluorescence ratio was 1.01 ± 0.043.

Work on TTCCCAGTGT yielded a switch fluorescence ratio of 1.87 ± 0.053.

Work on TAACTTTTCG yielded a switch fluorescence ratio of 1.004 ± 0.0028.

Work on GGGAAACAAT yielded a switch fluorescence ratio of 1.55 ± 0.91.

Sequence CATTTTAGAG has a switch fluorescence ratio of 0.98256 ± 0.00032.

AACATTTTTG gave a switch fluorescence ratio of 0.998 ± 0.026.

CAGTTTGGGG was tested, and the switch fluorescence ratio was 0.982 ± 0.019.

Work on TGAGGGGCGA yielded a switch fluorescence ratio of 0.989 ± 0.028.

With GGTTCCACGC the switch fluorescence ratio was 1.09 ± 0.025.

GAGTACGGGA was tested, and the switch fluorescence ratio was 1.09 ± 0.059.

For CGGTTTGATT, the switch fluorescence ratio was 1.04 ± 0.073.

For AACCCGGATT, the switch fluorescence ratio was 0.9958 ± 0.0035.

In the case of AAGCACGTTG, the switch fluorescence ratio is reported as 1.05 ± 0.027.

Work on TAAAATGAGG yielded a switch fluorescence ratio of 0.987 ± 0.043.

Work on ATTGAGCAAA yielded a switch fluorescence ratio of 1.11 ± 0.056.

Sequence GGATAAGAAT has a switch fluorescence ratio of 1.02 ± 0.052.

TCTCTTTGTG showed a switch fluorescence ratio of 1.02 ± 0.024.

Work on TTTTTAGTCG yielded a switch fluorescence ratio of 1 ± 0.036.

TTGCGTGTTG gave a switch fluorescence ratio of 1.01 ± 0.019.

Sequence TTATGCTTCT has a switch fluorescence ratio of 1.01 ± 0.053.

With GGGGGGAGG the switch fluorescence ratio was 1.1 ± 0.13.

In the case of TATGGTTTAG, the switch fluorescence ratio is reported as 1.02 ± 0.015.

AGTTTTAAGC was tested, and the switch fluorescence ratio was 1.01 ± 0.043.

Work on CACTGGGTGT yielded a switch fluorescence ratio of 1.24 ± 0.021.

GGATTTAGAA was tested, and the switch fluorescence ratio was 0.975 ± 0.032.

ACGCTTGAAT showed a switch fluorescence ratio of 1.01 ± 0.023.

Work on GTTGGAGATT yielded a switch fluorescence ratio of 0.961 ± 0.042.

Work on TCATTTGTGC yielded a switch fluorescence ratio of 1.01 ± 0.039.

GATTTACCAG was tested, and the switch fluorescence ratio was 1.03 ± 0.027.

For CAGTGGGCGG, the switch fluorescence ratio was 1.06 ± 0.07.

Work on GGGTGAAAAG yielded a switch fluorescence ratio of 1.04 ± 0.033.

Sequence TTTTGTCAGG has a switch fluorescence ratio of 0.993 ± 0.0079.

For GGACTCGCTC, the switch fluorescence ratio was 1.02 ± 0.018.

GGAGTGCCGT showed a switch fluorescence ratio of 1 ± 0.093.

Work on GCTGCAGGGT yielded a switch fluorescence ratio of 0.9922 ± 0.009.

TTTAGTTGTT gave a switch fluorescence ratio of 1.01 ± 0.03.

Sequence GACAAAGATT has a switch fluorescence ratio of 1.0037 ± 0.00037.

Work on GGATTAATTT yielded a switch fluorescence ratio of 0.98006 ± 0.00058.

ACGGGGGGGG was tested, and the switch fluorescence ratio was 1.02 ± 0.048.

In the case of CGGTAGTTGT, the switch fluorescence ratio is reported as 0.981 ± 0.014.

With CTGTGTATGT the switch fluorescence ratio was 1.02 ± 0.061.

With TATTTACATT the switch fluorescence ratio was 1.03 ± 0.048.

GCTGCTTAGC showed a switch fluorescence ratio of 1.02 ± 0.018.

Sequence TTTGTTAAAA has a switch fluorescence ratio of 1.04 ± 0.061.

TCGGGATGTT was tested, and the switch fluorescence ratio was 0.989 ± 0.027.

Sequence GATATCAGGA has a switch fluorescence ratio of 0.989 ± 0.027.

With GGGATGCGG the switch fluorescence ratio was 0.9609 ± 0.0064.

In the case of TATTCGAGGC, the switch fluorescence ratio is reported as 1.06 ± 0.052.

TATTGCTAGG was tested, and the switch fluorescence ratio was 0.9582 ± 0.0063.

For GCAATAGACT, the switch fluorescence ratio was 1.51 ± 0.04.

GACTTGGGTG was tested, and the switch fluorescence ratio was 1.02 ± 0.038.

Sequence TCGAAAAAGG has a switch fluorescence ratio of 1.0045 ± 8.5e-06.

TTTAAGTCTC gave a switch fluorescence ratio of 1.001 ± 0.0062.

TGCTACAAGG gave a switch fluorescence ratio of 1.03 ± 0.011.

CAGTTTTTTA showed a switch fluorescence ratio of 0.983 ± 0.016.

GGGTCACTGG was tested, and the switch fluorescence ratio was 0.9765 ± 0.0056.

Work on GGTCAGGGGA yielded a switch fluorescence ratio of 0.988 ± 0.04.

Work on CGTGGCGGTT yielded a switch fluorescence ratio of 1.09 ± 0.13.

Sequence GCAGTGGGGT has a switch fluorescence ratio of 1.01 ± 0.022.

GCGCGGAGGA was tested, and the switch fluorescence ratio was 1.03 ± 0.029.

With TGGGAATGCG the switch fluorescence ratio was 1.013 ± 0.0026.

GGTGTTTGAC gave a switch fluorescence ratio of 0.999 ± 0.011.

For ATTAAGACAG, the switch fluorescence ratio was 0.973 ± 0.032.

For GAATGTAGTT, the switch fluorescence ratio was 1.01 ± 0.017.

AAATGCTATA gave a switch fluorescence ratio of 1.01 ± 0.022.

Sequence TGCGAATTAG has a switch fluorescence ratio of 0.998 ± 0.019.

Sequence GAGGAGGCCA has a switch fluorescence ratio of 0.9828 ± 0.0053.

Work on ATCTGGGTAG yielded a switch fluorescence ratio of 1.01 ± 0.03.

AGGGGAGGGA gave a switch fluorescence ratio of 1 ± 0.027.

For TAGCTATTGT, the switch fluorescence ratio was 0.984 ± 0.012.

TTAATTAAAG showed a switch fluorescence ratio of 0.993 ± 0.017.

Sequence TTTAGGAGGA has a switch fluorescence ratio of 0.997 ± 0.025.

TTTTAGGCTT showed a switch fluorescence ratio of 1.01 ± 0.026.

With GCCGTAATTA the switch fluorescence ratio was 1.09 ± 0.017.

TCAAGTATGT gave a switch fluorescence ratio of 1.006 ± 0.01.

In the case of AATAAAGGTT, the switch fluorescence ratio is reported as 1.1 ± 0.18.

Sequence TTTGCTTAGG has a switch fluorescence ratio of 0.993 ± 0.037.

For TTCGTTAGAG, the switch fluorescence ratio was 0.9796 ± 0.0014.

Sequence ATCATGAGTC has a switch fluorescence ratio of 0.972 ± 0.03.

Work on GGGACACGA yielded a switch fluorescence ratio of 0.988 ± 0.024.

With GTTAAATGTG the switch fluorescence ratio was 0.972 ± 0.024.

In the case of AGCACGGGTA, the switch fluorescence ratio is reported as 1.008 ± 0.0055.

For GCGGGATTGG, the switch fluorescence ratio was 1.001 ± 0.0077.

CCCCCGGGGG gave a switch fluorescence ratio of 1.91 ± 0.15.
